# Test results as given in patent US20230212319A1, “NOVEL ANTIGEN BINDING DOMAINS AND SYNTHETIC ANTIGEN RECEPTORS INCORPORATING THE SAME” (University of Southern California, priority 2020, published 2023).
# B1: 22097 (protein)
# chain: MALPVTALLLPLALLLHAARPQLQLQESGPGLVKPSETLSLTCTVSGDSISSGDYYWGWIRQPPGKGLEWIGHIYYSGVTYYNPSLKSRVTISVDTSRNQFSLKLSSVTAADTAVYYCTREDSSNWRSRGQGTLVTVSSLEGQPKANPTVTLFPPSSEELQANKATLVCLISDFYPGAVTVAWKADGSPVKAGVETTKPSKQSNNKYAASSYLSLTPEQWKSHRSYSCQVTHEGSTVEKTVAPTECSGRADCGFTSESYQQGVLSATILYEILLGKATLYAVLVSALVLMAMVKRKDSRGRAKRSGSGATNFSLLKQAGDVEENPGPTSMDWIWRILFLVGAATGAHSFEVQLLESGGGLIQPGGSLRLSCAASGFTFSSHAMTWVRQAPGKGLEWVSAISGSGDYTHYADSVKGRFTISRDNSKNTVYLQMNSLRAEDSAVYYCAKDEDGGSLLGHRGQGTLVTVSSTRASTKGPSVFPLAPSSKSTSGGTAALGCLVKDYFPEPVTVSWNSGALTSGVHTFPAVLQSSGLYSLSSVVTVPSSSLGTQTYICNVNHKPSNTKVDKRVEPKSCIPEDTFFPSPESSCDVKLVEKSFETDTNLNFQNLSVIGFRILLLKVAGFNLLMTLRLWSSRAKRSGSGVKQTLNFDLLKLAGDVESNPGPSRGHMTEYKPTVRLATRDDVPRAVRTLAAAFADYPATRHTVDPDRHIERVTELQELFLTRVGLDIGKVWVADDGAAVAVWTTPESVEAGAVFAEIGPRMAELSGSRLAAQQQMEGLLAPHRPKEPAWFLATVGVSPDHQGKGLGSAVVLPGVEAAERAGVPAFLETSAPRNLPFYERLGFTVTADVEVPEGPRTWCMTRKPGA
# B2: 22202 (protein)
# chain: MALPVTALLLPLALLLHAARPACAGHLEQPQISSTKTLSKTARLECVVSGITISATSVYWYRERPGEVIQFLVSISYDGTVRKESGIPSGKFEVDRIPETSTSTLTIHNVEKQDIATYYCALWEAQQELGKKIKVFGPGTKLIITDKQLDKQLDADVSPKPTIFLPSIAETKLQKAGTYLCLLEKFFPDVIKIHWQEKKSNTILGSQEGNTMKTNDTYMKFSWLTVPEKSLDKEHRCIVRHENNKNGVDQEIIFPPIKTDVITMDPKDNCSKDANDTLLLQLTNTSAYYMYLLLLLKSVVYFAIITCCLLRRTAFCCNGEKSRAKRSGSGATNFSLLKQAGDVEENPGPTSATMDWIWRILFLVGAATGAHSGPQVQLQESGGGLAQAGGSLRLSCAASGRTFSMGWFRQAPGKEREFVAAITYSGGSPYYASSVRGRFTISRDNAKNTVYLQMNSLKPEDTAVYYCAANPTYGSDWNAENWGQGTQVTVSSGSGGGGSGGGGSGGGGSFEAIELVPEHQTVPVSIGVPATLRCSMKGEAIGNYYINWYRKTQGNTMTFIYREKDIYGPGFKDNFQGDIDIAKNLAVLKILAPSERDEGSYYCACDTLGMGGEYTDKLIFGKGTRVTVEPRSQPHTKPSVFVMKNGTNVACLVKEFYPKDIRINLVSSKKITEFDPAIVISPSGKYNAVKLGKYEDSNSVTCSVQHDNKTVHSTDFEVKTDSTDHVKPKETENTKQPSKSCHKPKAIVHTEKVNMMSLTVLGLRMLFAKTVAVNFLLTAKLFFLRAKRSGSGVKQTLNFDLLKLAGDVESNPGPSRAHMTEYKPTVRLATRDDVPRAVRTLAAAFADYPATRHTVDPDRHIERVTELQELFLTRVGLDIGKVWVADDGAAVAVWTTPESVEAGAVFAEIGPRMAELSGSRLAAQQQMEGLLAPHRPKEPAWFLATVGVSPDHQGKGLGSAVVLPGVEAAERAGVPAFLETSAPRNLPFYERLGFTVTADVEVPEGPRTWCMTRKPGA
# B3: 22200 (protein)
# chain: MTIRLLCYMGFYFLGAGLMEADIYQTPRYLVIGTGKKITLECSQTMGHDKMYWYQQDPGMELHLIHYSYGVNSTEKGDLSSESTVSRIRTEHFPLTLESARPSHTSQYLCASSEARGLAEFTDTQYFGPGTRLTVLEDLKNVFPPEVAVFEPSEAEISHTQKATLVCLATGFYPDHVELSWWVNGKEVHSGVCTDPQPLKEQPALNDSRYCLSSRLRVSATFWQNPRNHFRCQVQFYGLSENDEWTQDRAKPVTQIVSAEAWGRADCGFTSESYQQGVLSATILYEILLGKATLYAVLVSALVLMAMVKRKDSRGRAKRSGSGATNFSLLKQAGDVEENPGPTSATMDWIWRILFLVGAATGAHSGPQVQLQESGGGLAQAGGSLRLSCAASGRTFSMGWFRQAPGKEREFVAAITYSGGSPYYASSVRGRFTISRDNAKNTVYLQMNSLKPEDTAVYYCAANPTYGSDWNAENWGQGTQVTVSSGSGGGGSGGGGSGGGGSFEAQTVTQSQPEMSVQEAETVTLSCTYDTSESDYYLFWYKQPPSRQMILVIRQEAYKQQNATENRFSVNFQKAAKSFSLKISDSQLGDAAMYFCAYRSAVNARLMFGDGTQLVVKPNTRIQNPDPAVYQLRDSKSSDKSVCLFTDFDSQTNVSQSKDSDVYITDKCVLDMRSMDFKSNSAVAWSNKSDFACANAFNNSIIPEDTFFPSPESSCDVKLVEKSFETDTNLNFQNLSVIGFRILLLKVAGFNLLMTLRLWSSRAKRSGSGVKQTLNFDLLKLAGDVESNPGPSRGHMTEYKPTVRLATRDDVPRAVRTLAAAFADYPATRHTVDPDRHIERVTELQELFLTRVGLDIGKVWVADDGAAVAVWTTPESVEAGAVFAEIGPRMAELSGSRLAAQQQMEGLLAPHRPKEPAWFLATVGVSPDHQGKGLGSAVVLPGVEAAERAGVPAFLETSAPRNLPFYERLGFTVTADVEVPEGPRTWCMTRKPGA
# B4: 22056 (protein)
# chain: MALPVTALLLPLALLLHAARPQLQLQESGPGLVKPSETLSLTCTVSGDSISSGDYYWGWIRQPPGKGLEWIGHIYYSGVTYYNPSLKSRVTISVDTSRNQFSLKLSSVTAADTAVYYCTREDSSNWRSRGQGTLVTVSSLEGSPIKTDVITMDPKDNCSKDANDTLLLQLTNTSAYYMYLLLLLKSVVYFAIITCCLLRRTAFCCNGEKSRAKRSGSGATNFSLLKQAGDVEENPGPTSMDWIWRILFLVGAATGAHSFEVQLVESGGGVVQPGRSLRLSCAASGFSFSGYGMHWVRQAPGKGLEWVAYISYDGSNKYYADSVKGRFTISRDNSKNTLYLQMNSLRAEDTAVYYCAKDPAWGLRLGESSSYDFDIWGQGTMVTVSSTRDKTHTCPPCPAGRADCGFTSESYQQGVLSATILYEILLGKATLYAVLVSALVLMAMVKRKDFRAKRSGSGATNFSLLKQAGDVEENPGPSRGHMTEYKPTVRLATRDDVPRAVRTLAAAFADYPATRHTVDPDRHIERVTELQELFLTRVGLDIGKVWVADDGAAVAVWTTPESVEAGAVFAEIGPRMAELSGSRLAAQQQMEGLLAPHRPKEPAWFLATVGVSPDHQGKGLGSAVVLPGVEAAERAGVPAFLETSAPRNLPFYERLGFTVTADVEVPEGPRTWCMTRKPGA
# B5: 22080 (protein)
# chain: MALPVTALLLPLALLLHAARPQLQLQESGPGLVKPSETLSLTCTVSGDSISSGDYYWGWIRQPPGKGLEWIGHIYYSGVTYYNPSLKSRVTISVDTSRNQFSLKLSSVTAADTAVYYCTREDSSNWRSRGQGTLVTVSSLESGGGGSFEEVQLLESGGGLVQPGGSLRLSCAASGFTFSSYAMSWVRQAPGKGLEWVSSISGSGDYIYYADSVKGRFTISRDISKNTLYLQMNSLRAEDTAVYYCAKEGTGANSSLADYRGQGTLVTVSSTRASTKGPSVFPLAPSSKSTSGGTAALGCLVKDYFPEPVTVSWNSGALTSGVHTFPAVLQSSGLYSLSSVVTVPSSSLGTQTYICNVNHKPSNTKVDKRVEPKSCIPEDTFFPSPESSCDVKLVEKSFETDTNLNFQNLSVIGFRILLLKVAGFNLLMTLRLWSSRAKRSGSGVKQTLNFDLLKLAGDVESNPGPSRGHMTEYKPTVRLATRDDVPRAVRTLAAAFADYPATRHTVDPDRHIERVTELQELFLTRVGLDIGKVWVADDGAAVAVWTTPESVEAGAVFAEIGPRMAELSGSRLAAQQQMEGLLAPHRPKEPAWFLATVGVSPDHQGKGLGSAVVLPGVEAAERAGVPAFLETSAPRNLPFYERLGFTVTADVEVPEGPRTWCMTRKPGA
# B6: 22082 (protein)
# chain: MALPVTALLLPLALLLHAARPQLQLQESGPGLVKPSETLSLTCTVSGDSISSGDYYWGWIRQPPGKGLEWIGHIYYSGVTYYNPSLKSRVTISVDTSRNQFSLKLSSVTAADTAVYYCTREDSSNWRSRGQGTLVTVSSLESGGGGSFEQLQLQESGPGLVKPSETLSLTCTVSGGSISSGDYYWGWIRQPPGKGLEWIGHIYYSGATYYNPSLKSRVTISVDTSRNQFSLKLSSVTAADTAVYYCTRDDSSNWRSRGQGTLVTVSSTRASTKGPSVFPLAPSSKSTSGGTAALGCLVKDYFPEPVTVSWNSGALTSGVHTFPAVLQSSGLYSLSSVVTVPSSSLGTQTYICNVNHKPSNTKVDKRVEPKSCIPEDTFFPSPESSCDVKLVEKSFETDTNLNFQNLSVIGFRILLLKVAGFNLLMTLRLWSSRAKRSGSGVKQTLNFDLLKLAGDVESNPGPSRGHMTEYKPTVRLATRDDVPRAVRTLAAAFADYPATRHTVDPDRHIERVTELQELFLTRVGLDIGKVWVADDGAAVAVWTTPESVEAGAVFAEIGPRMAELSGSRLAAQQQMEGLLAPHRPKEPAWFLATVGVSPDHQGKGLGSAVVLPGVEAAERAGVPAFLETSAPRNLPFYERLGFTVTADVEVPEGPRTWCMTRKPGA
# B7: 22069 (protein)
# chain: MALPVTALLLPLALLLHAARPQLQLQESGPGLVKPSETLSLTCTVSGDSISSGDYYWGWIRQPPGKGLEWIGHIYYSGVTYYNPSLKSRVTISVDTSRNQFSLKLSSVTAADTAVYYCTREDSSNWRSRGQGTLVTVSSLEGGGGSGGGGSGGGGSVEIQNPDPAVYQLRDSKSSDKSVCLFTDFDSQTNVSQSKDSDVYITDKCVLDMRSMDFKSNSAVAWSNKSDFACANAFNNSIIPEDTFFPSPESSCDVKLVEKSFETDTNLNFQNLSVIGFRILLLKVAGFNLLMTLRLWSSSSRAKRSGSGVKQTLNFDLLKLAGDVESNPGPTSMDWIWRILFLVGAATGAHSFEVQLLESGGGLIQPGGSLRLSCAASGFTFSSHAMTWVRQAPGKGLEWVSAISGSGDYTHYADSVKGRFTISRDNSKNTVYLQMNSLRAEDSAVYYCAKDEDGGSLLGHRGQGTLVTVSSTRIQNPDPAVYQLRDSKSSDKSVCLFTDFDSQTNVSQSKDSDVYITDKCVLDMRSMDFKSNSAVAWSNKSDFACANAFNNSIIPEDTFFPSPESSCDVKLVEKSFETDTNLNFQNLSVIGFRILLLKVAGFNLLMTLRLWSSRAKRSGSGVKQTLNFDLLKLAGDVESNPGPSRGHMTEYKPTVRLATRDDVPRAVRTLAAAFADYPATRHTVDPDRHIERVTELQELFLTRVGLDIGKVWVADDGAAVAVWTTPESVEAGAVFAEIGPRMAELSGSRLAAQQQMEGLLAPHRPKEPAWFLATVGVSPDHQGKGLGSAVVLPGVEAAERAGVPAFLETSAPRNLPFYERLGFTVTADVEVPEGPRTWCMTRKPGA
# System: RAJI cells
# Assay: JNG assay, co-culture with RAJI cells
# Assay type: cell-based
# Details: JNG cells expressing construct, co-culture with Raji
# Method in brief: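 Read-out is NFAT-driven GFP measured by flow cytometry after ~4–18 h co-culture of SAR-expressing JNG cells with target cells (E:T about 1:2). SARs were introduced by lentiviral spinfection and selected with puromycin or blasticidin when possible; scores (+/- to 5+ ≈ 5–50% GFP+) are relative to parental JNG cells.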
row,Molecule,NFAT-GFP ASSAY: Raji
1,B1,"+ (refer to approximately 5%, 10%, 20%, 30%, 40% and 50% GFP positive cells)"
2,B2,"Raji (3+) (refer to approximately 5%, 10%, 20%, 30%, 40% and 50% GFP positive cells)"
3,B3,"+ (refer to approximately 5%, 10%, 20%, 30%, 40% and 50% GFP positive cells)"
4,B4,"+/- (refer to approximately 5%, 10%, 20%, 30%, 40% and 50% GFP positive cells)"
5,B5,"+ (refer to approximately 5%, 10%, 20%, 30%, 40% and 50% GFP positive cells)"
6,B6,"+/- (refer to approximately 5%, 10%, 20%, 30%, 40% and 50% GFP positive cells)"
7,B7,"+ (refer to approximately 5%, 10%, 20%, 30%, 40% and 50% GFP positive cells)"
